Legend:
Conditions in all cases: source organism: Vaccinia virus WR
HLA-A*11:01 [1] = experiment: IEDB peptide-MHC binding, purified MHC/competitive/radioactivity; ≥ and ≤ were set here for values at or beyond the usual limits of such assays
HLA-A*03:01 [2] = experiment: IEDB peptide-MHC binding, purified MHC/competitive/radioactivity; filed as Kd, often an IC50 or EC50 that approximates it; ≥ and ≤ were set here for values at or beyond the usual limits of such assays
HLA-A*31:01 = experiment: as above
HLA-A*33:01 = experiment: as above
HLA-A*68:01 = experiment: as above
HLA-A*03:01 [3] = experiment: IEDB peptide-MHC binding, purified MHC/competitive/radioactivity; ≥ and ≤ were set here for values at or beyond the usual limits of such assays
HLA-A*11:01 [4] = experiment: IEDB peptide-MHC binding, purified MHC/competitive/radioactivity; filed as Kd, often an IC50 or EC50 that approximates it; ≥ and ≤ were set here for values at or beyond the usual limits of such assays
HLA-A*02:01 = experiment: IEDB peptide-MHC binding, purified MHC/competitive/radioactivity; ≥ and ≤ were set here for values at or beyond the usual limits of such assays
HLA-A*02:06 = experiment: IEDB peptide-MHC binding, purified MHC/competitive/radioactivity; filed as Kd, often an IC50 or EC50 that approximates it; ≥ and ≤ were set here for values at or beyond the usual limits of such assays

Row | Sequence | IC50 (HLA-A*11:01 [1]) [nM] | Kd (HLA-A*03:01 [2]) [nM] | Kd (HLA-A*31:01) [nM] | Kd (HLA-A*33:01) [nM] | Kd (HLA-A*68:01) [nM] | IC50 (HLA-A*03:01 [3]) [nM] | Kd (HLA-A*11:01 [4]) [nM] | IC50 (HLA-A*02:01) [nM] | Kd (HLA-A*02:06) [nM]
1 | ATSLDVINY | 6.8 | 625 | 10300 | ≥ 50000 | ≥ 50000 | – | – | – | –
2 | AVKDVTITKK | – | – | 605 | ≥ 50000 | 1620 | 84 | 519 | – | –
3 | FLVIAINAM | – | – | – | – | – | – | – | 435 | 930
